How the values were obtained:
Assay in all cases: purified protein
purified protein [1] = substrate: CC(C)C(=O)O; details: 10 mM ATP, 4 mM MnSO4, pH 7.5, 37 °C
purified protein [2] = substrate: CC(C)CC(=O)O; details: 10 mM ATP, 4 mM MnSO4, pH 7.5, 37 °C
purified protein [3] = substrate: CCCC(=O)O; details: 10 mM ATP, 4 mM MnSO4, pH 7.5, 37 °C
purified protein [4] = substrate: CCCCC(=O)O; details: 10 mM ATP, 4 mM MnSO4, pH 7.5, 37 °C
purified protein [5] = substrate: Nc1ncnc2c1ncn2[C@@H]1O[C@H](COP(=O)(O)OP(=O)(O)OP(=O)(O)O)[C@@H](O)[C@H]1O; details: 200 mM butyrate, 4 mM MnSO4, pH 7.5, 37 °C, no ADP

B1: LmBuk (Buk, butyrate kinase) (Listeria monocytogenes EGD-e) (protein)
chain: MSFDVLTINPGSTSTKLAVYQGDKVLFEETVRHTMQELADFNNVQEQFDFRWQVLRRVMDAHGYDVKKLQAVVGRGGLLRPVAGGTYMVTEKMIDDLKENKYGEHASNLGAMLAKKLADELTIPSFIVDPVVVDEMQEIARISGNAFVTRKSIFHALNHKAAGRKIAKELGKDYEKMNFVIAHLGGGISVAAHRQGKAVDVNNALDGDGPFSPERSGSLPMNDFLEACFSGKWTKRELHELIVGRGGMISYLGTNSMLEVEAKVQAGEEKAIEAFDAMAYQVSKEIGACSVVLQGKVDAIILTGGLARSELFTSKIIEQTNWITSVIIEPGEDELEALNSGVQRVLAGLEKEKEY
Km (purified protein [1]): 7.6 ± 1.3 mM
kcat (purified protein [1]): 0.395 ± 0.00667 s⁻¹
kcat/Km (purified protein [1]): 51.7 M⁻¹ s⁻¹
Km (purified protein [2]): 57.1 ± 9.6 mM
kcat (purified protein [2]): 0.417 s⁻¹
kcat/Km (purified protein [2]): 7.33 M⁻¹ s⁻¹
Km (purified protein [3]): 50.5 ± 5.8 mM
kcat (purified protein [3]): 0.8367 ± 0.00667 s⁻¹
kcat/Km (purified protein [3]): 16.5 M⁻¹ s⁻¹
Km (purified protein [4]): 13.1 ± 3.3 mM
kcat (purified protein [4]): 1.2 ± 0.0367 s⁻¹
kcat/Km (purified protein [4]): 91.7 M⁻¹ s⁻¹
K0.5 (purified protein [5]): 3.18 mM

— paper PMC5263062
